Assay results reported in article PMC3316571.

Biological target: Notch-1 (endogenous; p300 or p120 not told) (human (endogenous in HeLa and BxPC3)) (UniProt P46531)
Experiment: co-IP; HA-tagged c-Src wild type, Y416F or Y527F transiently transfected in HeLa; whole-cell lysate, IP with anti-Notch-1, blot with anti-HA and anti-Notch-1

fold reduction of binding against wild type c-Src: > 3 fold
Substance: HA-tagged c-Src Y416F (kinase dead) (enzyme)
